Data taken from US20090016967A1.

Biological target: IGF-1 receptor (IGF-1R) on primary mouse lung fibroblasts / in mouse lung (mouse) (UniProt Q60751)
Test: cell-based or functional assay

IGF-1 receptor (IGF-1R) on primary mouse lung fibroblasts / in mouse lung (mouse), sequence (Q60751 31-1373): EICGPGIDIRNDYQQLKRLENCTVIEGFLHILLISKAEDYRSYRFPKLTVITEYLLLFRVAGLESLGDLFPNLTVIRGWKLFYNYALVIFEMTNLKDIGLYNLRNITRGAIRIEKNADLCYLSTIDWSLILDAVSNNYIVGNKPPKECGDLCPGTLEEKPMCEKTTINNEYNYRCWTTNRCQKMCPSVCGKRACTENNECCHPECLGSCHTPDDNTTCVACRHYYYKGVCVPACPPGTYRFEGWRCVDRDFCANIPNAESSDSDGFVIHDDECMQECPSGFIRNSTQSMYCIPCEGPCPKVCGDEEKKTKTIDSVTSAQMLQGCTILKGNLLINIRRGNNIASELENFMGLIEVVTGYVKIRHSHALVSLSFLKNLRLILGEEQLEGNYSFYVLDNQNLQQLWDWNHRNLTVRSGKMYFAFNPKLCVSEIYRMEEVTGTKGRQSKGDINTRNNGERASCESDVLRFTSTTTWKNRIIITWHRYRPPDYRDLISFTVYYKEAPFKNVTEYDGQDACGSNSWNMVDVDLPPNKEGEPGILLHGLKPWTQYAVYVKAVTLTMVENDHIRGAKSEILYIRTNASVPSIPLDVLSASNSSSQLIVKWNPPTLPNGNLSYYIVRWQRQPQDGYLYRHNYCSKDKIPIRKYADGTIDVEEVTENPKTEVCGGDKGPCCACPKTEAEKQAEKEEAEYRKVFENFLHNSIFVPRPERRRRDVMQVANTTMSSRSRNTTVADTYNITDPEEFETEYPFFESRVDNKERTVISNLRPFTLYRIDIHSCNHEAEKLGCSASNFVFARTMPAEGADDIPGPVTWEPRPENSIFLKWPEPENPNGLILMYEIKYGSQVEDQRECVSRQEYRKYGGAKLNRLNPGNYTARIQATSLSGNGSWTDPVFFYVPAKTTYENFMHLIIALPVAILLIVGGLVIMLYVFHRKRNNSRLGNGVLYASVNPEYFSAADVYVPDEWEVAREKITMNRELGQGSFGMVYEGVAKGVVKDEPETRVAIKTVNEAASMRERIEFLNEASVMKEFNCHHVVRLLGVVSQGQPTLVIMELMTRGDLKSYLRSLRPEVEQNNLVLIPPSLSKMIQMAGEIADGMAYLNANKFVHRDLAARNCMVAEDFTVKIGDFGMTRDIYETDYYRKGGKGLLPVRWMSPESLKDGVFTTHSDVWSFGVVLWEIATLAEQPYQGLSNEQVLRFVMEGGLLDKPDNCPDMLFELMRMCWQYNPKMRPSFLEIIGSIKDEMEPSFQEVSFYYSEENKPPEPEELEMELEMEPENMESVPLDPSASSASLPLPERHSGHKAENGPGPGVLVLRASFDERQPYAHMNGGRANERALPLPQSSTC

- migration of mouse lung fibroblasts (transwell): 1.8 fold
Substance: IGF-1 (R&D Systems) (ligand)
